In patent US20220154204:

Experiments:
[1] = biological target: GST-OST1/SnRK2.6 (UniProt Q940H6)
[2] = biological target: T1, GST-SnRK2.3 (UniProt Q39193)
T1 sequence: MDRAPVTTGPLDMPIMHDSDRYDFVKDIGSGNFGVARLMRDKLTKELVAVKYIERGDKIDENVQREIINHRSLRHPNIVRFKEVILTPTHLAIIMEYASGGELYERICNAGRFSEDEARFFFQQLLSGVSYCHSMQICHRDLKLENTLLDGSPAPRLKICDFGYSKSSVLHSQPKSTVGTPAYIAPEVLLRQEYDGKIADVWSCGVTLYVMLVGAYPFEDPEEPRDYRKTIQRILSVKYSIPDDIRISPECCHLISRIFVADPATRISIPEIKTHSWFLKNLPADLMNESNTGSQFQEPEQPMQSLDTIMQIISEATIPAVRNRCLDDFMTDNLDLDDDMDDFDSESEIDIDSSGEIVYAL

[3] = biological target: GST-OST1/SnRK2.6 (D140A) (UniProt Q940H6)
[4] = biological target: T2, dephosphorylated recombinant His-OST1/SnRK2.6 (UniProt Q940H6)
T2 sequence: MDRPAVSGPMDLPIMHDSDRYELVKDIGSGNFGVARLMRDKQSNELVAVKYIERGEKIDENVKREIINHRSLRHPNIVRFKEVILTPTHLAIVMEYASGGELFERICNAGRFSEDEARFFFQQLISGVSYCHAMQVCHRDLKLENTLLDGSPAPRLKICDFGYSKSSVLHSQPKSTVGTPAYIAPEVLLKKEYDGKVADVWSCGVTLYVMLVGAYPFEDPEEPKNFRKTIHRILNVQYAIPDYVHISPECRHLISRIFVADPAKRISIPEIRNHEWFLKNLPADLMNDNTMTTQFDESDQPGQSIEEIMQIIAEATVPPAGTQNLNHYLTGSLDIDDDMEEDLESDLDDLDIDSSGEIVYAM

[5] = biological target: T3, GST-SnRK2.4 (UniProt P43291)
T3 sequence: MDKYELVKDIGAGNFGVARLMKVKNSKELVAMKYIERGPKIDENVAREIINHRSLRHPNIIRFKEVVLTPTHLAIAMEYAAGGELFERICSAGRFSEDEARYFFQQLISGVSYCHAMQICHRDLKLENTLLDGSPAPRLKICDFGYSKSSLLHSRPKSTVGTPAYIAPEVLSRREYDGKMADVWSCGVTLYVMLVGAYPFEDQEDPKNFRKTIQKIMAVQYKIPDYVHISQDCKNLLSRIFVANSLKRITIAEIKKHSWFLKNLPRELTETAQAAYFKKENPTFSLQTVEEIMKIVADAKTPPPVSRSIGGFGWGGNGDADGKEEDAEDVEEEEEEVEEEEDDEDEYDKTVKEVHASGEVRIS

[6] = biological target: T4, GST-SnRK2.2 (UniProt Q39192)
T4 sequence: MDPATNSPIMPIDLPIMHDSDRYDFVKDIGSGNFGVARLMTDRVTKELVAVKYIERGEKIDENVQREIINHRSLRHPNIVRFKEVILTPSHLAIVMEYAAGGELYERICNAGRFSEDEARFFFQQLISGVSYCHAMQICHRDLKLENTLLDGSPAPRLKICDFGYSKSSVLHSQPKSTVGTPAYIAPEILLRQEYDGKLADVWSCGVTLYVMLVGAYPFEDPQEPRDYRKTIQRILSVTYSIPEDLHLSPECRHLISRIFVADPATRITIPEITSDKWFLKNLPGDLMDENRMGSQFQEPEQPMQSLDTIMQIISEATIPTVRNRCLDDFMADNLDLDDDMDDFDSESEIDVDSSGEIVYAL

CPK23, sequence (chain, as listed by the source): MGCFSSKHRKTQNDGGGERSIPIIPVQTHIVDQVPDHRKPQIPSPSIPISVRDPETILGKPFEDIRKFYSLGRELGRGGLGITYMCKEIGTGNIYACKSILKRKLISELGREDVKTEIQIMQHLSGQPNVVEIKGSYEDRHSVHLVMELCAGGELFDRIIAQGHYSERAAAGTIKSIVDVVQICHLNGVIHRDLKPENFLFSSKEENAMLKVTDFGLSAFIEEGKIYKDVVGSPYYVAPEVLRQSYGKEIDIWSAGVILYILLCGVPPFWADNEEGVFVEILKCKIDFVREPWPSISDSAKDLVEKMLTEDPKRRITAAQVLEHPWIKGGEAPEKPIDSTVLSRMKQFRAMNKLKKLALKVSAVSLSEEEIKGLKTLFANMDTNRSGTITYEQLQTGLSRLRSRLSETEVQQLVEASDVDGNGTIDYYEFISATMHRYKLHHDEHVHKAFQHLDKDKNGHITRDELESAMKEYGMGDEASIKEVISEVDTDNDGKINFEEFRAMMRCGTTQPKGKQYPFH

Row | Substance | SnRK2 kinase activity, in-gel kinase assay in vitro [2] | in vitro phosphorylation assay with 32P-ATP [3] | OST1/SnRK2.6 activity, in-gel kinase assay in vitro [4] | further results
1 | full-length His-M3Kδ1 | – | – | – | OST1/SnRK2.6 activity, in-gel kinase assay in vitro [1]: Full-length M3Kδ1 activates OST1/SnRK2.6 in vitro
2 | GST-M3Kδ7 kinase domain | SnRK2.3 was also activated by M3Kδ6 and M3Kδ7 | the M3Kδ1, 66 and 67 kinase domains directly phosphorylated the kinase inactive OST1/SnRK2.6 (D140A) mutant isoform | three M3Ks from the subgroup B3, named M3Kδ1, 66 and 67, were found to strongly activate OST1/SnRK2.6 | –
3 | CPK6 | – | – | – | in vitro phosphorylation assay with 32P-ATP after dephosphorylation of OST1 [1]: did not phosphorylate OST1/SnRK2.6 after dephosphorylation
4 | M3Kδ6 kinase domain mutant (K775W) | – | – | OST1/SnRK2 kinase activation was not induced by an inactive mutant M3K kinase protein, M3Kδ6 (K775W) | –
5 | CPK23 | – | – | – | in vitro phosphorylation assay with 32P-ATP after dephosphorylation of OST1 [1]: did not phosphorylate OST1/SnRK2.6 after dephosphorylation
6 | GST-M3Kδ1 kinase domain | M3Kδ1 strongly activated SnRK2.2 and 2.3 | the M3Kδ1, 66 and 67 kinase domains directly phosphorylated the kinase inactive OST1/SnRK2.6 (D140A) mutant isoform | three M3Ks from the subgroup B3, named M3Kδ1, 66 and 67, were found to strongly activate OST1/SnRK2.6 | OST1/SnRK2.6 activity, in-gel kinase assay in vitro [1]: the truncated kinase domain (M3Kδ1_KD) has a higher activity than the full length M3Kδ1 protein (M3Kδ1_Full); phosphorylation sites by LC-MS/MS after in vitro phosphorylation [3]: M3Kδ1 phosphorylated the OST1/SnRK2.6 residues Ser171, Ser175 and Thr176 in the OST1 activation loop; SnRK2 kinase activity, in-gel kinase assay in vitro [5]: M3Kδ1 also activated SnRK2.4 kinase in vitro; SnRK2 kinase activity, in-gel kinase assay in vitro [6]: M3Kδ1 strongly activated SnRK2.2 and 2.3
7 | GST-M3Kδ6 kinase domain | SnRK2.3 was also activated by M3Kδ6 and M3Kδ7 | the M3Kδ1, 66 and 67 kinase domains directly phosphorylated the kinase inactive OST1/SnRK2.6 (D140A) mutant isoform | three M3Ks from the subgroup B3, named M3Kδ1, 66 and 67, were found to strongly activate OST1/SnRK2.6 | –
